Measured values: publication PMC314469, “Protein Interaction Networks by Proteome Peptide Scanning” (PLoS Biology, 2004)

How the values were obtained:
[1] = target: T1, amphyphisin SH3 (AMPH_HUMAN), P49418; assay: SPOT array
T1 chain: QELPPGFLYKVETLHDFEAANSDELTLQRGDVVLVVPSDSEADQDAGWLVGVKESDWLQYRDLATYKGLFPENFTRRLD

[2] = target: endophilin SH3 (SH3G2_HUMAN), Q99962; assay: SPOT array

| Binder | normalised SPOT signal, Boehringer light units (BLU); mean over the file's lines of this peptide [1] | normalised SPOT signal, Boehringer light units (BLU); mean over the file's lines of this peptide [2] |
| --- | --- | --- |
| VSPGPIRPIKQISD [Q14184 22-35] | 126 | 344 |
| VSRLPKRPEPSPPL [Q15515 17-30] | 30 | 3650 |
| TSPAPHRPPKRVKA [Q9NRC7 337-350] | -0 | 4.2 |
| VATDLGRPARSATG [Q96JQ0 2039-2052] | 18.2 | 89.9 |
| VEHVPGRPVRNPQS [P25391 53-66] | 638 | 49.9 |
| TTKVIRRPRRGRMG [O75334 571-584] | 118 | 150 |
| VEELLRRPMDSLDS [P42229 764-777] | 30.5 | 46.2 |
| TSWMPRRPSSPLKE [Q9H2L5 83-96] | 36.5 | 684 |
| TTRRPPRPPGSSRK [Q9C0H3 154-168] | 3160 | 11100 |
| TVNLFKRPLPKSKP [Q9UNP7 5-18] | 25.3 | 60.8 |
| TTVLIKRPDLKYQL [Q99767 658-671] | 30.1 | 74.4 |
| VEGILKRPPDEQRL [Q15370 31-44] | 32.4 | 20.6 |
| TSFEPRRPPPLRPG [Q9P2S2 1586-1599] | 32.4 | 210 |
| SGGRPARPDRGPEP [Q92914 53-66] | 1740 | 2500 |
| TSAVLRRPQKGRLA [Q13135 548-561] | 84.9 | 138 |
| TYSLLRRPFRQVLA [Q96P69 293-306] | 691 | 715 |
| TTPPPGRPPAPSSE [Q96KN1 287-301] | 24.7 | 4930 |
| TTTPPTKPPSFNLH [Q99966 72-86] | 54 | 647 |
| VASGPSRPGREEHI [Q04671 237-250] | 2520 | 430 |
| SGKAFRRPSDLFRH [Q9NPV1 31-44] | 28.3 | 26.9 |
| VSLALVRPSKMGLS [O15403 466-479] | 53.1 | 9.5 |

| Binder | normalised SPOT signal, Boehringer light units (BLU); mean over the file's lines of this peptide [1] | normalised SPOT signal, Boehringer light units (BLU); mean over the file's lines of this peptide [2] |
| --- | --- | --- |
| VEGSPFRPPSHSFS [O95359 85-99] | 51.3 | 79.6 |
| TSPTFRRPKTLRLR [P29316 42-55] | 56.7 | 54.7 |
| TWQGLRRPPSVLGH [Q9C094 1911-1924] | 64 | 346 |
| VAPRPARPPGDLGP [O00144 174-188] | 151 | 630 |
| TYQHLRRPRGLSSL [O60721 37-50] | 31.3 | 196 |
| VAEPPPRPPPPPPP [Q9NZM4 1290-1304] | 75.4 | 609 |
| VSARPEKPPGQVTR [P35475 539-553] | 42.3 | 98.9 |
| VDNTIKRPNPAPGT [Q9UQ13 68-81] | 7.4 | 51.8 |
| TTVRPAKPPVVDRS [O95630 222-236] | 34.9 | 806 |
| TSGSFRRPESPRPR [O15054 552-565] | 57.4 | 67.6 |
| VARSPKRPAWGSRR [Q9P1W0 38-51] | 47.2 | 1040 |
| AAVTLKRPPPYQWD [Q9NRJ4 1113-1126] | 42.1 | 61.6 |
| TTVLIRRPDLRYQL [Q02410 746-759] | 29.4 | 16.2 |
| TSVPLARPLRTSEE [O94942 425-438] | 161 | 186 |
| TSLSLRRPPGPASQ [Q15477 130-143] | 33.9 | 26.8 |
| VSRDITRPPKTVAT [Q14425 672-685] | 119 | 189 |
| TSPAPHRPPKRGPL [Q9UQD1 353-366] | 220 | 4010 |
| VSPGPIRPIRQISD [Q14183 21-34] | 1280 | 254 |
| VAWHPKRPLLAFAS [Q96J01 313-326] | 32.8 | 267 |
| TYTAPPRPPKKREY [Q9P1Z0 111-124] | 189 | 166 |
| SGPPPLRPPLPAAA [P22004 21-35] | 58.3 | 4710 |
